# Assay results as given in publication PMC10869273 (Nature Biotechnology, 2023).
# Key:
# [1] = target: SARS-CoV-2 Beta-variant Spike with six stabilizing proline substitutions (S-6P) (SARS-CoV-2 Beta variant (B.1.351), strain)
# [2] = target: SARS-CoV-2 Omicron BA.1 receptor-binding domain (RBD) (SARS-CoV-2 Omicron BA.1, strain, biotin on the AviTag (expressed in the presence of BirA)); assay: BLI; conditions: both partners purified
binder,measurement,setting,value
"REGN10987 VH R16G-V108D (antibody, V domains shown) VH: QVQLVESGGGVVQPGGSLRLSCAASGFTFSNYAMYWVRQAPGKGLEWVAVISYDGSNKYYADSVKGRFTISRDNSKNTLYLQMNSLRTEDTAVYYCASGSDYGDYLLDYWGQGTLVTVSS VL: QSALTQPASVSGSPGQSITISCTGTSSDVGGYNYVSWYQQHPGKAPKLMIYDVSKRPSGVSNRFSGSKSGNTASLTISGLQSEDEADYYCNSLTSISTWVFGGGTKLTVL",binding result,[1],binds
"another design of REGN10987 (5.1-fold improvement for the Omicron BA.1 RBD), Fab (Fab, V domains shown) VH: QVQLVESGGGVVQPGGSLRLSCAASGFTFSNYAMYWVRQAPGKGLEWVAVISYDGSNKYYADSVKGRFTISRDNSKNTLYLQMNSLRTEDTAVYYCASGSDYGDYLLVYWGQGTLVTVSS VL: QSALTQPASVSGSPGQSITISCTGTSSDVGGYNYVSWYQQHPGKAPKLMIYDVSKRPSGVSNRFSGSKSGNTASLTISGLQSEDEADYYCCSLTSISTWVFGGGTKLTVL",fold improvement in Fab Kd over wild-type,[2],5.1 fold
"best design of C143, IgG (antibody, V domains shown) VH: EVQLVESGGGLVQPGGSLRLSCAASGFSVSTKYMTWVRQAPGKGLEWVSVLYSGGSDYYADSVKGRFTISRDNSKNALYLQMNSLRVEDTGVYYCARDSSEVRDHPGHPGRSVGAFDIWGQGTMVTVSS VL: QSALTQPASVSGSPGQSITISCTGTSNDVGSYNLVSWYQQYPGKAPKLLIFEVTKRSSGISNRFSGSKSGNTASLTISGLQGEDEADYYCCSYAGASTFVFGGGTKLTVL",fold improvement in apparent Kd over wild-type,[2],3.8 fold
